In assay [1] the target is T1, CXCR4 (N119A) (Homo sapiens, UniProt P61073, N119A).
T1 construct: expressed in transfected cells; host or cells: HEK293T, transient; membranes in A4, whole cells in A5
Briefly: Basal inositol phosphate accumulation in HEK293T cells transiently expressing CXCR4 (N119A). Format: cell-based. Particulars: for functional profile on CXCR4 (N119A) (in words): ligand-induced alteration of basal inositol phosphate accumulation; for reduction of the constitutively increased basal signalling of CXCR4 (N119A): basal inositol phosphate accumulation, HEK293T cells transiently expressing CXCR4 (N119A). The text has this: The functional profile of monovalent Nanobodies 238D2 and 238D4 as well as their bivalent fusion products L3 and L8 on CXCR4 (N119A) were investigated by measurement of the ligand-induced alteration of the basal inositol phosphate accumulation. HEK293T cells transiently expressing CXCR4 (N119A) show a 3-8 times higher basal rate of inositol phosphate accumulation compared to wild type CXCR4 or mock (which are virtually at the same level). […] The nanobody-induced reduction of basal inositol phosphate accumulation was antagonized by the selective neutral CXCR4 antagonist plerixafor confirming that the observed […] effects are mediated via CXCR4 (N119A).

Assay [2] addresses wildtype human CXCR4 (pcDNA3.1-CXCR4, expressed in HEK293T) (human) (UniProt P61073). Briefly: competition with [125I]-CXCL12, HEK293T-CXCR4 membranes.
Assay [3] shares this target. The assay is described as follows: competition with [125I]-238D4, HEK293T-CXCR4 membranes.
For assay [4], the target named is CXCR4 mutation library clone 914 (N192K) (human, UniProt P61073 1-352). The assay is described as follows: immunofluorescence on HEK-293T expressing the clone, normalised to wild type.
Assay [5] deals with wildtype human CXCR4 (pcDNA3.1-CXCR4, expressed in HEK293T) (human) (UniProt P61073). Briefly: competition with [125I]-238D2, HEK293T-CXCR4 membranes.
The target in assay [6] is CXCR4 mutation library clone 1057 (K230E, S178R) (human) (UniProt P61073). The assay is described as follows: immunofluorescence on HEK-293T expressing the clone, normalised to wild type.
For assay [7], the target named is CXCR4 mutation library clone 709 (P163L, S178I) (human) (UniProt P61073). The assay is described as above.
In assay [8] the target is CXCR4 mutation library clone 1129 (F189V) (human) (UniProt P61073). The assay is described as above.
Assay [9] has as its target CXCR4 mutation library clone 414 (C218R, E179V, S351T) (human) (UniProt P61073). The assay is described as above.
The target in assay [10] is CXCR4 mutation library clone 2396 (S178C) (human) (UniProt P61073). Described as above.
Assay [11] deals with CXCR4 mutation library clone 3728 (D187A, Y157C) (human) (UniProt P61073). Described as above.
For assay [12], the target named is CXCR4 mutation library clone 2184 (P191T) (human) (UniProt P61073). The assay is described as above.
In assay [13] the target is CXCR4 mutation library clone 913 (F189S, K308R) (human) (UniProt P61073). Described as above.
The target in assay [14] is CXCR4 mutation library clone 3622 (E277G) (human) (UniProt P61073). Described as above.
Assay [15] has as its target CXCR4 mutation library clone 2270 (V196E) (human) (UniProt P61073). The description is as above.
The target in assay [16] is CXCR4 mutation library clone 3630 (W195R) (human) (UniProt P61073). The description is as above.
Assay [17] addresses CXCR4 mutation library clone 185 (E277A, I245V, N298S) (human) (UniProt P61073). The assay is described as above.
For assay [18], the target named is CXCR4 mutation library clone 2834 (E179V, G258E) (human) (UniProt P61073). The assay is described as above.
Assay [19] addresses CXCR4 mutation library clone 2084 (D187V) (human) (UniProt P61073). Described as above.
Assay [20] addresses CXCR4 mutation library clone 465 (F189L, S319P, V155E) (human) (UniProt P61073). Described as above.
In assay [21] the target is T2, CXCR4 (Homo sapiens, UniProt P61073).
T2 construct: expressed in transfected cells; host or cells: HEK293T, transient; membrane fraction
The assay is described as follows: Competition binding, displacement of [^125I]-238D4 on membranes from HEK293T cells transiently expressing CXCR4. As to the method: (§1) Iodine incorporation and specific activity were controlled via precipitation of the protein with trichloroacetic acid.
(§2) Competition binding assay—Periplasmic fractions were screened in a competition binding assay using membranes from HEK293T cells transiently expressing CXCR4. […] Membranes were then harvested over polyethylenimine (0.5%)-treated Whatman GF/C filter plates and washed three times with ice cold binding buffer containing 500 mM NaCl. Plates were counted by liquid scintillation.
(§3) Characterization of Nanobody binding to CXCR4—Following purification, receptor binding to characteristics for 238D2 and 238D4 were investigated on cell membranes from HEK293T cells transiently expressing CXCR4.
(§4) Data analysis and presentation—Data are presented as mean±S.E.M. from n independent experiments. Concentration response curves (E/[A] curves) were fitted to the Hill equation using an iterative, least-squares method (GraphPad Prism 4.0, GraphPad Software, San Diego, Calif.) to provide maximal inhibitory effects (Imax), half maximal effective (EC50) or inhibitory concentrations (IC50). Competition binding affinities and functional antagonist affinities (Ki) were calculated using the Cheng and Prusoff equation Ki=IC50/(1+[agonist]/EC50) (Cheng & Prusoff, 1973).

For assay [22], the target named is T1, CXCR4 (N119A). The assay is described as follows: Competition binding with [125I]-CXCL12 on constitutively active CXCR4 mutant N119A. Conditions: competition with [125I]-CXCL12 (40 pM); for binding to CXCR4 (N119A) (in words): highest nanobody test concentration 2 μM. How it is done: Competition binding assay—Periplasmic fractions were screened in a competition binding assay using membranes from HEK293T cells transiently expressing CXCR4. In short, periplasmic extracts (1:10) or ligands were pre-incubated with membranes in binding buffer (50 mM HEPES (pH 7.4), 1 mM CaCl2, 5 mM MgCl2, 100 mM NaCl, 0.5% bovine serum albumin) supplemented with 0.5% BSA for 1 h at 22° C. before the addition of [^125I]-CXCL12 (40 pM) or [^125I]-238D2 (3 nM) or [^125I]-238D4 (3 nM) for additional 2 h at 22° C. […] Membranes were then harvested over polyethylenimine (0.5%)-treated Whatman GF/C filter plates and washed three times with ice cold binding buffer containing 500 mM NaCl. Plates were counted by liquid scintillation.
CXCR4—specific Nanobodies behave as neutral antagonists or inverse agonists on constitutively active mutants of CXCR4—The CXCR4—specific monovalent Nanobodies 238D2 and 238D4 as well as their bivalent fusion products L3 and L8 were investigated on the constitutively active CXCR4 mutant N119A (equivalent to N3.35A in the Ballestros-Weinstein numbering of class A GPCRs). […] Despite of the large number of CAMs for other class A GPCRs and further efforts to generate additional CAMs for CXCR4 (Berchiche et al., 2007), the N119 mutants of CXCR4 remain the only known CAMs for this receptor. […] Methods: Preparation of membranes and competition binding experiments with [125I]-CXCL12 (40 pM) were performed as described before for wild type CXCR4 (vide supra).

For assay [23], the target named is T2, CXCR4. Briefly: Competition binding, displacement of [^125I]-CXCL12 on membranes from HEK293T cells transiently expressing CXCR4. Particulars: maximal displacement; membranes from HEK293T cells transiently expressing CXCR4; mean ± S.E.M. How it is done:
as §1, §2, §3, §4

Assay [24] addresses T2, CXCR4. The assay is described as follows: Competition binding, displacement of [^125I]-238D2 on membranes from HEK293T cells transiently expressing CXCR4. As to the method: as §1, §2, §3, §4
[25] abbreviates: maximal displacement, mean ± S.E.M.

T1 sequence (P61073 whole entry N119A): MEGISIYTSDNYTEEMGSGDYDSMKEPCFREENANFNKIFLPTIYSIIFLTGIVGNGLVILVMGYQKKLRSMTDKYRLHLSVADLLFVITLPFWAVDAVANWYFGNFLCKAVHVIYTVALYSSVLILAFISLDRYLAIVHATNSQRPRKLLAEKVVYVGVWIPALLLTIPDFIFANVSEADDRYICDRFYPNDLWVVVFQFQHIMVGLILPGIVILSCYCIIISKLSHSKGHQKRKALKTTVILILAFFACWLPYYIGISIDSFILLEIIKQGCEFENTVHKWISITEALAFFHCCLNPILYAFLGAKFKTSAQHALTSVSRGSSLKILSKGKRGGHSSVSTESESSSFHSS
T2 sequence (P61073 whole entry): as the sequence (P61073 whole entry N119A) above, with A119N counted along it
wildtype human CXCR4 (pcDNA3.1-CXCR4, expressed in HEK293T) (human), sequence (P61073 whole entry): as the sequence (P61073 whole entry N119A) above, with A119N counted along it
CXCR4 mutation library clone 2834 (E179V, G258E) (human), sequence (P61073 whole entry E179V/G258E): as the sequence (P61073 whole entry N119A) above, with A119N, E179V, G258E counted along it
CXCR4 mutation library clone 2396 (S178C) (human), sequence (P61073 whole entry S178C): as the sequence (P61073 whole entry N119A) above, with A119N, S178C counted along it
CXCR4 mutation library clone 3630 (W195R) (human), sequence (P61073 whole entry W195R): as the sequence (P61073 whole entry N119A) above, with A119N, W195R counted along it
CXCR4 mutation library clone 913 (F189S, K308R) (human), sequence (P61073 whole entry F189S/K308R): as the sequence (P61073 whole entry N119A) above, with A119N, F189S, K308R counted along it
CXCR4 mutation library clone 1129 (F189V) (human), sequence (P61073 whole entry F189V): as the sequence (P61073 whole entry N119A) above, with A119N, F189V counted along it
CXCR4 mutation library clone 2184 (P191T) (human), sequence (P61073 whole entry P191T): as the sequence (P61073 whole entry N119A) above, with A119N, P191T counted along it
CXCR4 mutation library clone 185 (E277A, I245V, N298S) (human), sequence (P61073 whole entry I245V/E277A/N298S): as the sequence (P61073 whole entry N119A) above, with A119N, I245V, E277A, N298S counted along it
CXCR4 mutation library clone 3622 (E277G) (human), sequence (P61073 whole entry E277G): as the sequence (P61073 whole entry N119A) above, with A119N, E277G counted along it
CXCR4 mutation library clone 2270 (V196E) (human), sequence (P61073 whole entry V196E): as the sequence (P61073 whole entry N119A) above, with A119N, V196E counted along it
CXCR4 mutation library clone 914 (N192K), sequence (P61073 whole entry N192K): as the sequence (P61073 whole entry N119A) above, with A119N, N192K counted along it
CXCR4 mutation library clone 465 (F189L, S319P, V155E) (human), sequence (P61073 whole entry V155E/F189L/S319P): as the sequence (P61073 whole entry N119A) above, with A119N, V155E, F189L, S319P counted along it
CXCR4 mutation library clone 1057 (K230E, S178R) (human), sequence (P61073 whole entry S178R/K230E): as the sequence (P61073 whole entry N119A) above, with A119N, S178R, K230E counted along it
CXCR4 mutation library clone 3728 (D187A, Y157C) (human), sequence (P61073 whole entry Y157C/D187A): as the sequence (P61073 whole entry N119A) above, with A119N, Y157C, D187A counted along it
CXCR4 mutation library clone 414 (C218R, E179V, S351T) (human), sequence (P61073 whole entry E179V/C218R/S351T): as the sequence (P61073 whole entry N119A) above, with A119N, E179V, C218R, S351T counted along it
CXCR4 mutation library clone 709 (P163L, S178I) (human), sequence (P61073 whole entry P163L/S178I): as the sequence (P61073 whole entry N119A) above, with A119N, P163L, S178I counted along it
CXCR4 mutation library clone 2084 (D187V) (human), sequence (P61073 whole entry D187V): as the sequence (P61073 whole entry N119A) above, with A119N, D187V counted along it

Take “CXCL12: CXCR4 reference ligand, human CXCL12 (SDF-1) [reference compound]”: the “stimulation of the mutant receptor” value in the assay with CXCR4 (N119A) [1] (inositol phosphate accumulation, CXCR4 (N119A)) is listed as 0.4 fold over basal.

For monoclonal antibody 12G5, the maximal displacement (%) in [2] came out at 54%; in assay [3], 90%; in [5] it was 89%. The pKi in [2] turned out to be 9.19 pKi; in assay [3], 9.31 pKi; in [5], 9.65 pKi. In addition, the % immunofluorescence was 57.7% in [4]; 112% in assay [6]; 113% in [7]; 94.7% in [8]; -9.1% in assay [9]; 91.8% in assay [10]. Also, the % immunofluorescence in [11] is 95.1%; in assay [12], 118%; in [13] it was 110%; in assay [14] it was 61.3%; in assay [15] it was 96.8%; in assay [16], 85.5%. For the same molecule, the % immunofluorescence in assay [17] is 93.9%; in [18] it was 1.5%; in [19], 89.5%; in [20] it was 50.4%.

Turning to `c1cc(CN2CCCNCCNCCCNCC2)ccc1CN1CCCNCCNCCCNCC1` [AMD3100, reference compound], the “functional profile on CXCR4 (N119A) (in words)” value (“functional profile on CXCR4” below) on CXCR4 (N119A) [1] is listed as “Only antagonistic but no significant inverse agonistic activities”. The “displacement of [^125I]-238D4 (in words)” value at CXCR4 [21] is “affinities comparable to those obtained against [^125I]-CXCL12”. Further, the “[^125I]-238D4 Displacem. (%)” value on CXCR4 [21] (setting [25]) turned out to be 99 ± 4%. In addition, the “binding to CXCR4 (N119A) (in words)” value at CXCR4 (N119A) [22] is on record as “clearly bind to the mutant receptor”. Besides, on CXCR4 [23], the “[^125I]-CXCL12 Displacem. (%)” value came to 94 ± 2%. For the same molecule, the “displacement of [^125I]-238D2 (in words)” value on CXCR4 [24] is “affinities comparable to those obtained against [^125I]-CXCL12”. The “[^125I]-238D2 Displacem. (%)” value on CXCR4 [24] (setting [25]) is recorded as 102 ± 1%.

B1: L3: bivalent fusion product 238D2-15GS-238D4, SEQ ID NO: 4 (protein)
chain: EVQLVESGGGLVQTGGSLRLSCAASGFTFSSYAMSWVRQAPGKGLEWVSGIKSSGDSTRYAGSVKGRFTISRDNAKNMLYLQMYSLKPEDTAVYYCAKSRVSRTGLYTYDNRGQGTQVTVSSGGGGSGGGGSGGGGSEVQLMESGGGLVQAGGSLRLSCAASGRTFNNYAMGWFRRAPGKEREFVAAITRSGVRSGVSAIYGDSVKDRFTISRDNAKNTLYLQMNSLKPEDTAVYTCAASAIGSGALRRFEYDYSGQGTQVTVSS
modifications: Nanobody construct
Take B1: in the assay with CXCR4 (N119A) [1], the “reduction of the constitutively increased basal signalling of CXCR4 (N119A)” value is reported as 64% and the “functional profile on CXCR4” value is “partial inverse agonists”. Besides, in the assay with CXCR4 (N119A) [22], the “binding affinities to CXCR4 (N119A) compared to wild type (in words)” value is “somewhat less compared to the wild type receptor” and the “binding to CXCR4 (N119A) (in words)” value is recorded as “able to bind to CXCR4 (N119A)”.

B2: L8: bivalent fusion product 238D2-20GS-238D4, SEQ ID NO: 5 (protein)
chain: EVQLVESGGGLVQTGGSLRLSCAASGFTFSSYAMSWVRQAPGKGLEWVSGIKSSGDSTRYAGSVKGRFTISRDNAKNMLYLQMYSLKPEDTAVYYCAKSRVSRTGLYTYDNRGQGTQVTVSSGGGGSGGGGSGGGGSGGGGSEVQLMESGGGLVQAGGSLRLSCAASGRTFNNYAMGWFRRAPGKEREFVAAITRSGVRSGVSAIYGDSVKDRFTISRDNAKNTLYLQMNSLKPEDTAVYTCAASAIGSGALRRFEYDYSGQGTQVTVSS
modifications: Nanobody construct
Consider B2, for which, in the assay with CXCR4 (N119A) [1], the “reduction of the constitutively increased basal signalling of CXCR4 (N119A)” value is on record as 65% and the “functional profile on CXCR4” value is “partial inverse agonists”. Besides, in the assay with CXCR4 (N119A) [22], the “binding affinities to CXCR4 (N119A) compared to wild type (in words)” value is listed as “somewhat less compared to the wild type receptor” and the “binding to CXCR4 (N119A) (in words)” value is listed as “able to bind to CXCR4 (N119A)”.
